Experimental data: paper PMC4802085, “Haem-dependent dimerization of PGRMC1/Sigma-2 receptor facilitates cancer proliferation and chemoresistance” (Nature Communications, 2016)

Molecular target: T1, purified EGFR (epidermal growth factor receptor) (human, UniProt P00533 25-1210)
T1 construct: epidermal growth factor receptor (EGFR), human, full length protein isolated from A431 cells; also called EGFR protein; source: bought: ENZO (BML-SE116), full length protein isolated from human A431 cells
Test: co-IP; in vitro binding assay: 1 μg purified EGFR with 10 μg FLAG-PGRMC1 (a.a.44–195) treated with 50 μmol l^−1 haemin, anti-FLAG (M2) agarose; 20 mmol l^−1 HEPES-NaOH (pH 7.9), 100 mmol l^−1 NaCl, 0.2 mmol l^−1 EDTA, 10% glycerol, 0.1% NP40, room temperature
Details: both partners purified

B1: FLAG-PGRMC1 wild-type (a.a.44–195) (domain or fragment)
chain: not shown
notes: progesterone-receptor membrane component 1 (PGRMC1), human, cytosolic domain a.a.44–195; The cloning of the FLAG-tagged 44–195 construct is not described; probably made like the other a.a.44–195 proteins (pGEX6P-1, E. coli BL21 (DE3), GST cleaved); Used as apo form or treated with 50 μmol l^−1 haemin; also called FLAG-PGRMC1 wt (a.a.44–195); cytosolic domain of wild-type PGRMC1
  binding result: binds
